# According to patent publication US11219221B2 (FarmHannong Co., Ltd., priority 2017, dated 2022):
# Residue numbers refer to the chain shown, from its start. In names and notes the source's numbering stands.
# B1: F359V: CyPPO17 variant (protein)
# chain: MEVDVAIVGGGLSGLSVAWRLQQSAPQYSGVLLEASDRLGGNITTQGAEGFVWELGPNSFAPTPALLQLIAEVGLHSELIRGDRHLPRYIYWRGELYPLEPTRPLALATSNLLSPWGKVRAALGALGFVPPYLGSGDESVNSFFRRHLGQEVAERLVAPFVSGVYAGDPQQLSAAAAFRRIAQLEKLGGGLIAGALRLRRQQPPKPRPPAEVQMRPGELGSFKEGLAALPRAIAQQLKAPVHLQTPVEAITPEPNGGYLLRSGEQTWQARSVVLATPAYQTAALVAPFQPAIARVLAAIPYPTVACVVLAYPAGLGRSVRPGFGVLIPRGQGIRTLGTIWSSCLFPQRTPAGWQVFTSVIGGATDPDLASLREEAIVQQVQQDLTRLLDLPAAKARLLGMKVWRRAIPQYLVGYPQQWQQVTHALSQTPGLFLCSNYAEGVALGDRVEHGNRTAAAVAAYLSGGQS
# modifications: Synthetic (Protoporphyrinogen IX oxidase (CyPPO17) of Thermosynechococcus sp. NK55a)
# notes: CyPPO17 variant
# B2: F359I: CyPPO17 variant (protein)
# chain: B1 chain with V359I
# modifications: Synthetic (Protoporphyrinogen IX oxidase (CyPPO17) of Thermosynechococcus sp. NK55a)
# notes: CyPPO17 variant
# B3: F359T: CyPPO17 variant (protein)
# chain: B1 chain with V359T
# modifications: Synthetic (Protoporphyrinogen IX oxidase (CyPPO17) of Thermosynechococcus sp. NK55a)
# notes: CyPPO17 variant
# B4: F323V: CyPPO17 variant (protein)
# chain: B1 chain with F323V, V359F
# modifications: Synthetic (Protoporphyrinogen IX oxidase (CyPPO17) of Thermosynechococcus sp. NK55a)
# notes: CyPPO17 variant
# B5: F359M: CyPPO17 variant (protein)
# chain: B1 chain with V359M
# modifications: Synthetic (Protoporphyrinogen IX oxidase (CyPPO17) of Thermosynechococcus sp. NK55a)
# notes: CyPPO17 variant
# B6: I339T: CyPPO17 variant (protein)
# chain: B1 chain with I339T, V359F
# modifications: Synthetic (Protoporphyrinogen IX oxidase (CyPPO17) of Thermosynechococcus sp. NK55a)
# notes: CyPPO17 variant
# B7: F160A: CyPPO17 variant (protein)
# chain: B1 chain with F160A, V359F
# modifications: Synthetic (Protoporphyrinogen IX oxidase (CyPPO17) of Thermosynechococcus sp. NK55a)
# notes: CyPPO17 variant
# B8: R88A: CyPPO17 variant (protein)
# chain: B1 chain with R88A, V359F
# modifications: Synthetic (Protoporphyrinogen IX oxidase (CyPPO17) of Thermosynechococcus sp. NK55a)
# notes: CyPPO17 variant
# B9: V304M: CyPPO17 variant (protein)
# chain: B1 chain with V304M, V359F
# modifications: Synthetic (Protoporphyrinogen IX oxidase (CyPPO17) of Thermosynechococcus sp. NK55a)
# notes: CyPPO17 variant
# B10: L326T + F359M: CyPPO17 variant (protein)
# chain: B1 chain with L326T, V359M
# modifications: Synthetic (Protoporphyrinogen IX oxidase (CyPPO17) of Thermosynechococcus sp. NK55a)
# notes: CyPPO17 variant
# B11: L326T: CyPPO17 variant (protein)
# chain: B1 chain with L326T, V359F
# modifications: Synthetic (Protoporphyrinogen IX oxidase (CyPPO17) of Thermosynechococcus sp. NK55a)
# notes: CyPPO17 variant
# Columns and labels:
# CyPPO17 [1] = assay: Herbicide tolerance test of CyPPO17 wild type and variants in PPO-deficient E. coli BT3(ΔPPO); assay type: cell-based, Thermosynechococcus sp. NK55a; settings: BT3(ΔPPO) transformants; for Herbicide tolerance, tiafenacil: 37° C., 16 to 20 hours
# Description: The mutated CyPPO gene obtained from the Example 2 was transformed to BT3 (ΔPPO) strain which is deficient of PPO activity and cultured in LB media with PPO-inhibiting herbicide, thereby examining whether growth of transformed BT3 was not inhibited.
# BT3 competent cells were transformed with the pET303-CyPPO16 and pET303-CyPPO17 plasmids and those with a mutation(s) constructed in Example 2 respectively, and were cultured in LB agar media containing carbenicillin (Gold Biotechnology, Co., Ltd.).
# Single colony of E. coli transformed with each CyPPO gene was cultured in 3 ml of LB broth containing carbenicillin overnight, and then was subcultured until absorbance (0D600) reached 0.5 to 1. Then, it was diluted with LB broth to OD600=0.5. Again, the diluted solution was serially diluted 4 times by a factor of one tenth.
# The LB agar media (LB 25 g/l, Bacto agar 15 g/l) containing carbenicillin (100 μg/ml) and 0 to 4,000 μM of various herbicides dissolved in DMSO was prepared. Next, 10 μl of each diluted solution was dropped on the plate and cultured at 37° C. under light (Tables 7 and 9, FIGS. 2 to 6, and 18 to 22) or dark (Tables 8 and 10, FIGS. 7 to 17, and 23 to 33) for 16 to 20 hours. Then, extent of tolerance was evaluated.
# The extent of herbicide tolerance of the mutated genes was evaluated by comparing that of mutated genes with that of wild type. The relative tolerance was represented with “+” as a factor of 10 times. Evaluation result was listed in Tables 7 to10 and FIGS. 2 to 33:
# In Tables 7 to 10, tolerance level was presented as of tolerance of wild type and of variants equivalent to that of wild type, and was done as ‘+’ per each 10 fold resistance until ‘+++++’ as maximal resistance. (Tolerance level was evaluated by relative growth level of variants to that of wild type in the media containing highest concentration of herbicide; ‘+’=1-9 fold higher tolerance, ‘++’=10-99 fold higher tolerance, ‘+++’=100-999 fold higher tolerance, ‘++++’=1,000-9,999 fold higher tolerance, ‘+++++’=more than 10,000 fold higher tolerance)
# The concentrations of herbicides were written above the photographs of tolerance test. A dilution series (0D600=0.5, 0.05, 0.005, 0.0005, 0.00005) was made and spotted on LB agar plates supplemented with herbicides.
# CyPPO17 [2] = assay: PPO enzyme activity of MBP-fused CyPPO17 wild type and variants; assay type: biochemical, Thermosynechococcus sp. NK55a; settings: PPO enzyme activity relative to wild type; MBP-fused protein, 50 μM protoporphyrinogen IX, room temperature, 30 min
# Description: Thus, PPO proteins of wild type and variants were expressed as fused to MBP and were used for experiments.
# The following process for purification of PPO protein was performed in a 4° C. cold room. Amylose resin (NEB) was packed to 1.5×15 cm column (Bio-Rad, Econo Columns 1.5×15 cm, glass chromatography column, max. vol), and the obtained protein extracts were loaded to the column at a flow rate of 0.2 ml/min. The column was washed with 3 column volumes of buffer and the presence of protein in the washing solution was examined. When the protein was no longer detected, the washing procedure was terminated. Then, the MBP-PPO protein was eluted with approximately 2 column volumes of buffer containing 20 mM maltose. The protein concentration of each eluent was determined and the elution was stopped when the protein was no longer detected. Ten microliter of each fraction was investigated for protein quantification and SDS-PAGE analysis. The highly pure fractions of PPO protein variants were used for the enzyme assay.
# Since protoporphyrinogen IX, a substrate of PPO protein, was not commercially available, it was chemically synthesized in the laboratory. Overall process was performed in dark under nitrogen stream. […] of protoporphyrin IX was dissolved in 20 ml of 20% (v/v) EtOH, and stirred under dark condition for 30 minutes. The obtained protoporphyrin IX solution was put into a 15 ml screw tube in an amount of 800 μl, and flushed with nitrogen gas for 5 minutes. To this, 1.5 g of sodium amalgam was added and vigorously shaken for 2 minutes. The lid was opened to exhaust hydrogen gas in the tube. Thereafter, the lid was closed and incubated for 3 minutes. The protoporphyrinogen IX solution was filtered using syringe and cellulose membrane filter. […] To determine the enzyme activity of PPO protein, a reaction mixture was prepared with the following composition (based on 10 ml): 50 mM Tris-Cl (pH 8.0); 50 mM NaCl; 0.04% (v/v) Tween 20; 40 mM glucose (0.072 g); 5 units glucose oxidase (16.6 mg); and 10 units catalase (1 μl).
# Hundred and eighty microliters of a reaction mixture containing the purified PPO protein were placed in 96 well plates and 20 μl of […] were added. […] The reaction proceeded at room temperature for 30 min and the fluorescence of protoporphyrin IX was measured using Microplate reader (Sense, Hidex) (excitation: 405 nm; emission: 633 nm). […] To this, 2.7 N HCl was added, and the absorbance at 408 nm was measured. A standard curve was generated using standard protoporphyrin IX, and PPO activity was measured by calibration of protoporphyrin IX using the standard curve of protoporphyrin IX.
# Activities of variants were presented relatively compared to that of wild type.
# [3] = one amino acid mutation, light, relative to wild type at highest concentration (50, 100 μM)
# [4] = one amino acid mutation, light, relative to wild type at highest concentration (5, 25 μM)
molecule,measurement,setting,value
B1,"Herbicide tolerance, tiafenacil",CyPPO17 [1]; [3],++ (‘++’=10-99 fold higher tolerance)
same,"Herbicide tolerance, pyraflufen-ethyl","CyPPO17 [1]; one amino acid mutation, light, relative to wild type at highest concentration (5, 10 μM)",++ (‘++’=10-99 fold higher tolerance)
same,"Herbicide tolerance, acifluorfen",CyPPO17 [1]; [4],+ (‘+’=1-9 fold higher tolerance)
same,"Herbicide tolerance, fomesafen",CyPPO17 [1]; [4],+ (‘+’=1-9 fold higher tolerance)
same,"Herbicide tolerance, pentoxazone",CyPPO17 [1]; [4],++ (‘++’=10-99 fold higher tolerance)
same,"Herbicide tolerance, pyraclonil",CyPPO17 [1]; [4],+ (‘+’=1-9 fold higher tolerance)
same,"Herbicide tolerance, sulfentrazone",CyPPO17 [1]; [4],++ (‘++’=10-99 fold higher tolerance)
same,"Herbicide tolerance, flumioxazin",CyPPO17 [1]; [3],++ (‘++’=10-99 fold higher tolerance)
same,"Herbicide tolerance, saflufenacil","CyPPO17 [1]; one amino acid mutation, light, relative to wild type at highest concentration (50, 200 μM)",+++ (‘+++’=100-999 fold higher tolerance)
same,Activity (%),CyPPO17 [2],84%
B2,Activity (%),CyPPO17 [2],92%
B3,Activity (%),CyPPO17 [2],56%
B4,Activity (%),CyPPO17 [2],16%
B5,Activity (%),CyPPO17 [2],90%
B6,Activity (%),CyPPO17 [2],48%
B7,Activity (%),CyPPO17 [2],63%
B8,Activity (%),CyPPO17 [2],70%
B9,Activity (%),CyPPO17 [2],82%
B10,"Herbicide tolerance, tiafenacil","CyPPO17 [1]; two or more amino acid mutations, dark, relative to wild type at highest concentration (50, 200 μM)","++++ (‘++++’=1,000-9,999 fold higher tolerance)"
same,"Herbicide tolerance, flumioxazin","CyPPO17 [1]; two or more amino acid mutations, dark, relative to wild type at highest concentration (100, 200 μM)","++++ (‘++++’=1,000-9,999 fold higher tolerance)"
same,"Herbicide tolerance, sulfentrazone","CyPPO17 [1]; two or more amino acid mutations, dark, relative to wild type at highest concentration (200, 400 μM)",+++ (‘+++’=100-999 fold higher tolerance)
same,Activity (%),CyPPO17 [2],74%
B11,Activity (%),CyPPO17 [2],96%
